According to patent publication US20150322474A1 (UNIVERSITY OF THE UNIVERSITY OF ABERDEEN, published 2015):

T1: VGAGIGFPAYDG peptide substrate
T1 chain: VGAGIGFPAYDG

T2: VGAGIGFPAYRG peptide substrate (modified recognition sequence, Asp to Arg)
T2 chain: VGAGIGFPAYRG

T3: VPAPIPFPAYDG peptide (substrate mimic, P8-P4')
T3 peptide: VPAPIPFPAYDG


How the values were obtained:
[1] = molecular target: T1, VGAGIGFPAYDG peptide substrate
[2] = molecular target: T2, VGAGIGFPAYRG peptide substrate …
[3] = molecular target: T3, VPAPIPFPAYDG peptide (substrate mimic, …); assay: X-ray crystal structure of the complex, 2.63 Å (co-crystallised, then soaked in 7.5 mM peptide)

Row | Binder | Cyclic ion count (%) (M + H = 699) [1] | Linear ion count (%) (M + H = 717) [1] | Unprocessed ion count (%) (M + H = 1123) [1] | linear product, LC-MS [2] | macrocyclization reaction, LC-MS [2] | binding result [3]
1 | PatGmac K598D (protein) GEDEIESAGVSASEVESSATKQKVALHPHDLDERIPGLADLHNQTLGDPQITIVIIDGDPDYTLSCFEGAEVSKVFPYWHEPAEPITPEDYAAFQSIRDQGLKGKEDEEALEAVIPDTKDRIVLNDHACHVTSTIVGQEHSPVFGIAPNCRVINMPQDAVIRGNYDDVMSPLNLARAIDLALELGANIIHCAFCRPTQTSEGEEILVQAIKKCQDNNVLIVSPTGNNSNESWCLPAVLPGTLAVGAAKVDGTPCHFSNWGGNNTKEGILAPGEEILGAQPCTEEPVRLTGTSMAAPVMTGISALLMSLQVQQGKPVDAEAVRTALLKTAIPCDPEVVEEPERCLRGFVNIPGAMKVLFGQ | 0% | 100% | 0% | PatGmac K598D produced cyclo[VGAGIGFP] with only 8% linear product, at a rate over an order of magnitude faster than wild-type PatGmac with VGAGIGFPAYDG |  | 
2 | PatGmac K594D (protein) GEDEIESAGVSASEVESSATKQKVALHPHDLDERIPGLADLHNQTLGDPQITIVIIDGDPDYTLSCFEGAEVSKVFPYWHEPAEPITPEDYAAFQSIRDQGLDGKEKEEALEAVIPDTKDRIVLNDHACHVTSTIVGQEHSPVFGIAPNCRVINMPQDAVIRGNYDDVMSPLNLARAIDLALELGANIIHCAFCRPTQTSEGEEILVQAIKKCQDNNVLIVSPTGNNSNESWCLPAVLPGTLAVGAAKVDGTPCHFSNWGGNNTKEGILAPGEEILGAQPCTEEPVRLTGTSMAAPVMTGISALLMSLQVQQGKPVDAEAVRTALLKTAIPCDPEVVEEPERCLRGFVNIPGAMKVLFGQ | 29% | 71% | 0% |  | reacted extremely slowly with the substrate giving equal amounts of macrocyclized and linear products | 
3 | PatGmac triple mutant R589D K594D K598D (protein) GEDEIESAGVSASEVESSATKQKVALHPHDLDERIPGLADLHNQTLGDPQITIVIIDGDPDYTLSCFEGAEVSKVFPYWHEPAEPITPEDYAAFQSIDDQGLDGKEDEEALEAVIPDTKDRIVLNDHACHVTSTIVGQEHSPVFGIAPNCRVINMPQDAVIRGNYDDVMSPLNLARAIDLALELGANIIHCAFCRPTQTSEGEEILVQAIKKCQDNNVLIVSPTGNNSNESWCLPAVLPGTLAVGAAKVDGTPCHFSNWGGNNTKEGILAPGEEILGAQPCTEEPVRLTGTSMAAPVMTGISALLMSLQVQQGKPVDAEAVRTALLKTAIPCDPEVVEEPERCLRGFVNIPGAMKVLFGQ | 0% | 6% | 94% |  | reacted extremely slowly with the substrate giving equal amounts of macrocyclized and linear products | 
4 | PatGmac wild-type (macrocyclase domain of PatG, residues 492-851) (protein) GEDEIESAGVSASEVESSATKQKVALHPHDLDERIPGLADLHNQTLGDPQITIVIIDGDPDYTLSCFEGAEVSKVFPYWHEPAEPITPEDYAAFQSIRDQGLKGKEKEEALEAVIPDTKDRIVLNDHACHVTSTIVGQEHSPVFGIAPNCRVINMPQDAVIRGNYDDVMSPLNLARAIDLALELGANIIHCAFCRPTQTSEGEEILVQAIKKCQDNNVLIVSPTGNNSNESWCLPAVLPGTLAVGAAKVDGTPCHFSNWGGNNTKEGILAPGEEILGAQPCTEEPVRLTGTSMAAPVMTGISALLMSLQVQQGKPVDAEAVRTALLKTAIPCDPEVVEEPERCLRGFVNIPGAMKVLFGQ | 100% | 0% | 0% |  | reacted extremely slowly with the substrate giving equal amounts of macrocyclized and linear products | 
5 | PatGmacΔ1 (deletion of residues 578-608, the helix-loop-helix insertion motif) (protein) GEDEIESAGVSASEVESSATKQKVALHPHDLDERIPGLADLHNQTLGDPQITIVIIDGDPDYTLSCFEGAEVSKVFPYWHEPAEPITKDRIVLNDHACHVTSTIVGQEHSPVFGIAPNCRVINMPQDAVIRGNYDDVMSPLNLARAIDLALELGANIIHCAFCRPTQTSEGEEILVQAIKKCQDNNVLIVSPTGNNSNESWCLPAVLPGTLAVGAAKVDGTPCHFSNWGGNNTKEGILAPGEEILGAQPCTEEPVRLTGTSMAAPVMTGISALLMSLQVQQGKPVDAEAVRTALLKTAIPCDPEVVEEPERCLRGFVNIPGAMKVLFGQ | 0% | 92% | 8% |  |  | 
6 | PatGmacΔ2 (deletion of residues 578-614, the helix-loop-helix insertion and the N-terminal extension of α4) (protein) GEDEIESAGVSASEVESSATKQKVALHPHDLDERIPGLADLHNQTLGDPQITIVIIDGDPDYTLSCFEGAEVSKVFPYWHEPAEPILNDHACHVTSTIVGQEHSPVFGIAPNCRVINMPQDAVIRGNYDDVMSPLNLARAIDLALELGANIIHCAFCRPTQTSEGEEILVQAIKKCQDNNVLIVSPTGNNSNESWCLPAVLPGTLAVGAAKVDGTPCHFSNWGGNNTKEGILAPGEEILGAQPCTEEPVRLTGTSMAAPVMTGISALLMSLQVQQGKPVDAEAVRTALLKTAIPCDPEVVEEPERCLRGFVNIPGAMKVLFGQ | 0% | > 99% | < 1% |  |  | 
7 | PatGmacH618A (inactive mutant of the PatG macrocyclase domain) (enzyme) GEDEIESAGVSASEVESSATKQKVALHPHDLDERIPGLADLHNQTLGDPQITIVIIDGDPDYTLSCFEGAEVSKVFPYWHEPAEPITPEDYAAFQSIRDQGLKGKEKEEALEAVIPDTKDRIVLNDAACHVTSTIVGQEHSPVFGIAPNCRVINMPQDAVIRGNYDDVMSPLNLARAIDLALELGANIIHCAFCRPTQTSEGEEILVQAIKKCQDNNVLIVSPTGNNSNESWCLPAVLPGTLAVGAAKVDGTPCHFSNWGGNNTKEGILAPGEEILGAQPCTEEPVRLTGTSMAAPVMTGISALLMSLQVQQGKPVDAEAVRTALLKTAIPCDPEVVEEPERCLRGFVNIPGAMKVLFGQ |  |  |  |  |  | binds
